Assay results from paper PMC11169542, “A probe for NIR-II imaging and multimodal analysis of early Alzheimer’s disease by targeting CTGF” (Nature Communications, 2024).
Ends that are not written are not given here.

Experiments:
CTX TNA2 cells = experiment: Cytotoxicity of DGC (CCK-8); type: cell-based; parameters: key to Cell viability: viability relative to control cells (control = 1); conditions: for Cell viability: 24 h, CCK-8, normalized to control
Method: (§1) U87MG, SH-SY5Y, and CTX TNA2 cells were seeded into 96-well plates at a density of 5 × 10^3 cells per well and were incubated at 37 °C for 24 h. Then, the cells were treated with 5, 10, 20, 50, 100, and 500 µM DGC for 24 h. Next, 10 µL of a colorimetric Cell Counting Kit (CCK-8) reagent diluted with 100 µL medium was added to each well, and incubated for 30 min, The absorbance at 450 nm was measured using a microplate reader (Molecular Devices, San Jose, CA, USA). The relative viability was normalized to control cells. The experiment was performed in triplicates.

[1] = Biosafety: blood tests and organ pathological analysis (H&E staining); type: in vivo; conditions: C57BL/6J mice, 20 mg/kg DGC, vs untreated normal mice
From the text: In order to clarify the NIR-II signal in AD brains when in vivo imaging is arisen from the DGC probe that bound to CTGF, we selected 3-month-old APP/PS1 mice representing early-stage AD and the age-matched WT mice as control to performed ex vivo multimodal analysis of the brain sections. […] To exclude the influence of vascular retention, we emptied the cerebral vessels by cardiac perfusion and performed ex vivo imaging of the brains. […] For brain sections made from AD mice after tail vein injection of DGC, the red fluorescence observation and LA-ICP-TOF-MS of DGC, as well as a POD-like catalysis test were performed. […] In Fig. 6c, the colocalization of DGC (red fluorescence) and CTGF (green fluorescence) on the ex vivo brain sections confirmed the specificity of DGC targeting CTGF in vivo. To further identify the cellular target of DGC in the brain of APP/PS1 mice, we carried out immunofluorescence staining on the ex vivo brain sections after tail vein injection of DGC where cell-specific fluorescent antibodies for microglia (Iba 1), neurons (NeuN), vascular endothelial cell (CD31) and reactive astrocytes (GFAP) were applied. […] The biosafety of DGC in C57BL/6J mice under the NIR-II imaging condition was evaluated by blood tests (blood cells and biochemical analysis) and organ pathological analysis (H&E staining).

U87MG cells = experiment: Cytotoxicity of DGC (CCK-8); type: cell-based, human; parameters: key to Cell viability: viability relative to control cells (control = 1); conditions: for Cell viability: 24 h, CCK-8, normalized to control
Method: as §1, with “Then, the cells were treated with 5, 10, 20, 50, 100, and 500 µM DGC for 24 h.” left out

[2] = Parallel artificial membrane permeability assay (PAMPA) mimicking BBB; type: in vitro ADME; conditions: for PAMPA permeability Pe: precoated PAMPA plate, 40 μM in PBS, 5 h, room temperature, ICP-MS
Method: A parallel artificial membrane permeability assay was performed in a 96-well precoated PAMPA plate system (Corning Gentest # 353015). The experimental solutions of DGC were prepared by diluting the stock solutions (10 mM) in PBS at a final concentration of 40 μM and then added to the donor portion of the plate (300 μL/well), while PBS (200 μL/well) was added to the acceptor portion, and the DMSO concentration was lower than 1%. The filter plate was then coupled with the receiver plate, and the plate assembly was incubated at room temperature without agitation for 5 h. Samples of the initial donor solution (C0) were collected and stored at 4 °C. At the end of the incubation, samples were collected from the donor and acceptor plates and then added to aqua regia (HCl: HNO3, volume ratio = 3:1). The C0 samples were treated similarly. The final concentrations of DGC in the donor, acceptor, and T0 wells were quantified by the ICP-MS system (Thermo Elemental X7, USA). The results were used to calculate an effective permeability (Pe, cm/s) value. Permeability of DGC was calculated using the following Eq. (1):1 Pe={-ln[1-CA(t)/Ceq]}/[A×(1/VD+1/VA)×t] Where A = filter area (0.3 cm^2), t = incubation time (seconds), CA(t) = compound concentration in acceptor well at time t, VD = donor well volume (0.3 mL), VA = acceptor well volume (0.2 mL), CD(t) = compound concentration in donor well at time t, and Ceq was calculated using the following Eq. (2):2 Ceq=[CD(t)×VD+CA(t)×VA]/(VD+VA)

[3] = 10 μM (Au content), replicate 1
[4] = 10 μM (Au content), replicate 2
[5] = 10 μM (Au content), replicate 3
[6] = 20 μM (Au content), replicate 1
[7] = 20 μM (Au content), replicate 2
[8] = 20 μM (Au content), replicate 3
[9] = 50 μM (Au content), replicate 1
[10] = 50 μM (Au content), replicate 2
[11] = 50 μM (Au content), replicate 3
[12] = 100 μM (Au content), replicate 1
[13] = 100 μM (Au content), replicate 2
[14] = 100 μM (Au content), replicate 3
[15] = 500 μM (Au content), replicate 1
[16] = 500 μM (Au content), replicate 2
[17] = 500 μM (Au content), replicate 3

Work on “DGC: CTGF-targeting peptide-coated gold nanocluster: one Au26 gold nanocluster coated by eight DAG cyclic peptides, NIR-II and red fluorescence (CDAGRKQKC; also: cyclic peptide, ring not given here, eight peptides on one Au26 nanocluster via Cys Au-S bonds)” yielded a Cell viability (CTX TNA2 cells; 5 μM (Au content), replicate 1) of 1.236, a Cell viability (CTX TNA2 cells; 5 μM (Au content), replicate 2) of 1.185 and a Cell viability (CTX TNA2 cells; 5 μM (Au content), replicate 3) of 1.252. The Cell viability (CTX TNA2 cells; [3]) was 1.248, the Cell viability (CTX TNA2 cells; [4]) was 1.23 and the Cell viability (CTX TNA2 cells; [5]) was 1.328. For the same substance, the Cell viability (CTX TNA2 cells; [6]) was 1.233, the Cell viability (CTX TNA2 cells; [7]) was 1.3 and the Cell viability (CTX TNA2 cells; [8]) was 1.347. The Cell viability (CTX TNA2 cells; [9]) was 1.269, the Cell viability (CTX TNA2 cells; [10]) was 1.237 and the Cell viability (CTX TNA2 cells; [11]) was 1.251. For the same substance, the Cell viability (CTX TNA2 cells; [12]) was 1.349, the Cell viability (CTX TNA2 cells; [13]) was 1.363 and the Cell viability (CTX TNA2 cells; [14]) was 1.443. The Cell viability (CTX TNA2 cells; [15]) was 1.758, the Cell viability (CTX TNA2 cells; [16]) was 1.646 and the Cell viability (CTX TNA2 cells; [17]) was 1.62. For the same substance, the cytotoxicity (CTX TNA2 cells; DGC incubation 24 h, CCK-8) was “did not cause any obvious cytotoxicity”, the “abnormalities in blood parameters and major organs” value [1] was “did not induce any abnormalities in blood parameters and major organs” and the Cell viability (U87MG cells; 5 μM (Au content), replicate 1) was 1.188. It also gave a Cell viability (U87MG cells; 5 μM (Au content), replicate 2) of 1.205, a Cell viability (U87MG cells; 5 μM (Au content), replicate 3) of 1.21 and a Cell viability (U87MG cells; [3]) of 1.185. For the same substance, the Cell viability (U87MG cells; [4]) was 1.16, the Cell viability (U87MG cells; [5]) was 1.163 and the Cell viability (U87MG cells; [6]) was 1.112. For the same substance, the Cell viability (U87MG cells; [7]) was 1.134, the Cell viability (U87MG cells; [8]) was 1.136 and the Cell viability (U87MG cells; [9]) was 1.152. It also gave a Cell viability (U87MG cells; [10]) of 1.117, a Cell viability (U87MG cells; [11]) of 1.103 and a Cell viability (U87MG cells; [12]) of 1.07. For the same substance, the Cell viability (U87MG cells; [13]) was 1.085, the Cell viability (U87MG cells; [14]) was 1.085 and the Cell viability (U87MG cells; 200 μM (Au content), replicate 1) was 1.067. The Cell viability (U87MG cells; 200 μM (Au content), replicate 2) was 1.053, the Cell viability (U87MG cells; 200 μM (Au content), replicate 3) was 1.071 and the Cell viability (U87MG cells; [15]) was 1.0892. For the same substance, the Cell viability (U87MG cells; [16]) was 1.102, the Cell viability (U87MG cells; [17]) was 1.058 and the cytotoxicity (U87MG cells; DGC incubation 24 h, CCK-8) was “did not cause any obvious cytotoxicity”. The “BBB permeability class (PAMPA)” value ([2]; 40 μM) was “high BBB permeability”, the “PAMPA permeability Mean Pe” value ([2]; at several concentrations) was “higher than 1.5 * 10^-6 cm/s” and the “PAMPA permeability Pe” value ([2]; replicate 1) was 2.121e-06 cm/s. For the same substance, the “PAMPA permeability Pe” value ([2]; replicate 2) was 2.6e-06 cm/s and the “PAMPA permeability Pe” value ([2]; replicate 3) was 1.724e-06 cm/s.
